Results as given in US20230115257A1 (published 2023).

Columns and labels:
Assay in all cases: ELISA
[1] = biological target: SARS-CoV-2 B.1.1.7 spike protein (SARS-CoV-2 B.1.1.7 (Alpha), UniProt P0DTC2 13-1213)
[2] = biological target: T1, SARS-CoV-2 P.1 spike protein (SARS-CoV-2 P.1 (Gamma), UniProt P0DTC2 13-1213)
[3] = biological target: T1, SARS-CoV-2 P.1 spike protein; remark: listed apart in the source

Binder | IC50 [1] [nM] | EC50 [2] [nM] | IC50 [3] [nM]
9-L13-A (antibody, V domains shown) VH: QVQLKESGPGLVAPSQSLSITCTVSGFSLTSYAISWVRQPPGKGLEWLGLIWTGGGTNYNSALKSRLSISKDNSKSQIFLKMNSLQTDDTARYYCARGPPLIYYGDLYYFDYWGQGTTLTVSS VL: DIQMTQSPSSLSASLGGKVTITCKASQDINKYIAWYQHKPGKGPRLLIHYTSTLQPGIPSRFSGSGSGRDYSFSISNLEPEDIATYYCLQYDNLWTFGGGTKLEIK | 65.3 | – | –
6-C19-A (antibody, V domains shown) VH: QIQLVQSGPELKKPGETVKISCKASGNTFTTAGMQWVQKMPGKGFKWIGWINTHSGEPKYAEDFKGRFAFSLETSASTAYLQISNLKNEDTATYFCARYGDYYYFDCWGQGTTLTVSS VL: DIQMTQSPASLSASVGETVTITCRASGNIHNYLAWYQQKQGKSPQLLVYNAKTLADGVPSRFSGSGSGTQYSLKINSLQPEDFGSFYCQHFWTTPWSFGGGTKLEIK | – | 0.62 | –
4-L4-A (antibody, V domains shown) VH: QAYLQQSGAELVRPGASVKMSCKASGYTFTSYTVHWVKQTPRQGLEWIGGIYPGNVDTSYNQNFKGKATLTVDKSSSTAYMQLSSLTSEDSAVYFCARDGYYAMDYWGQGTSVTVSS VL: not shown | 31.6 | – | 28.2
2-O12-A (antibody, V domains shown) VH: EVQLQQSGPELVKPGASVKISCKASGYTFTDYYMNWVKQSHGKSLEWIGDINSNNGGTTYDQKFKGKATLTVDRSSSTAYMELRSLTSEDSAVYYCARRGDGHFGGFTYWGQGTLVTVSA VL: not shown | 87.6 | – | –
4-N22-A (antibody, V domains shown) VH: QVQLQQPGTELVKPGASVKLSCKASGYTFTNYWMYWVKQRPGQGLDWIGNINPSNGGTNYNEKFKSKATLTVDKSSSTAYMQLSSLTSEDSAVYYCARETGNYWGQGTTLTVSS VL: DILMTQSPSSMSVSLGDTVSISCHASQGISSNIGWLQQKPGKSFKGLIYHGTNLEDGVPSRFSGSGSGADYSLTISSLESEDFADYYCVQYAQFPYTFGGGTKLEIK | 1.51 | – | 17.2
4-M3-A (antibody, V domains shown) VH: EVQLQQSGPELVKPGDSVKISCKASGYSFTGYFMNWVMQSHGKSLEWIGRINPNNGETFYNQKFKGKATLTVDKSSDTAHMELRSLTSEDSAVYYCARGGTGTGWGQGTTLTVSS VL: DILMTQSPSSMSVSLGDTVSITCHASQGISSNIGWLQQKPGKSFKGLIYYGTNLEDGVPSRFSGSGSGADYSLTISSLESEDLADYYCIQYAQFPYTFGGGTKLEIK | 4.98 | – | 13.5
6-O12-A (antibody, V domains shown) VH: QVQLQQPGTELVKPGASVKLSCKASGYTFTSYWMHWVKQRPGQGLEWIGNINPSNGGTNYNEKFRSKATLTVDKSSSTAYMQLSSLTSEDSAVYYCARLGWFLPLGSWGQGTTLTVSS VL: QIVLTQSPAIMSASLGEVITLTCSASSSVSYMHWYQQKSGTSPKLLIYSTSNLASGVPSRFSGSGSGTFYSLTISSVEAEDAADYYCHQWSGYMYTFGGGTKLEIK | 7.05 | – | 8.01
1-L10-A (antibody, V domains shown) VH: EVKLEESGGGLVQPGGSMKLSCVASGFTFNNYWMNWVRQSPEKGLEWVAQMRLKSDNYATHYAESVKGRFTISRDDSKSSVYLQMNNLRAEDTGIYYCIEGYWTYWGQGTLVTVSA VL: QIVLTQSPAIMSASLGERVTMTCTASSSVSSSYLHWYQQKPGSSPKLWIYSTSNLASGVPARFSGNGSGTSYSLTISSMEAEDAATYYCLQYHRSPPYTFGGGTKLEIK | 7.82 | – | 11.5
2-H7-A (antibody, V domains shown) VH: QAYLQQSGAELVRPGASVKMSCKASGYTFTGYTMHWVKQTPRQGLEWIGAIYPENGDTSYNQKFKGKATLTVDKSSSTAYMQLSSLTSEDSAVYFCARDGYDVLYGMDYWGQGTSVTVSS VL: DIVLTQSPASLAVSLGQRATISCRASKSVSTSGYSYMHWYQQKPGQPPKLLIYLASNLESGVPARFSGSGSGTDFTLNIHPVEEEDAATYYCQHSRELPWTFGGGTKLDIK | 9.88 | – | 35.6
2-G20-A (antibody, V domains shown) VH: EVQLQQSGPELVKPGASVKMSCKASGYTFPSYVLHWVKQKPGQGLEWIGYIYPYNDGTNYNEKFKGKATLTSDKSSSTAYMELSSLTSEDSAVYYCARGDYGDSAWFPYWGQGTLVTVSA VL: DIVLTQSPASLAVSLGQRATISCRASKSVSTSGYSYMHWYQQKPGQPPKLLIYLASNLKSGVPARFSGGGSGTDFTLNIHPVEEEDAATYYCQLSRELPWTFGGGTKLEIK | 19.2 | – | 18.9
8-H5-A (antibody, V domains shown) VH: QVTLKESGPGILQSSQTLSLTCSLSGFSLSTSGMGVSWVRQPSGKGLEWLAHIYWDDDKRYTPSLKSRLTISTDSSRKQVFLKITSVDTADTATYYCARRDLHDYDGWFAYWGQGTLVTVSA VL: DIVMTQSQKFMSTAVGDRVSVTCKASQNVGTNVAWYQQKPGQSPKALIYSASFRYSGVPDRFSGSGSGTDFTLTISNVQSEDLAEYFCQQYNSYPLTFGSGTKLEIK | 15.4 | – | 30.5
10-J24-A (antibody, V domains shown) VH: EVQLVESGGGLVKPGGSLKLSCAASGFTFSSYAMSWVRQNPAKRLEWVATISGGGGFTYYPDSVKGRFTISRDNAKNTLYLQMNSLRSEDTAMYYCARDEDGKHDYFDYWGQGTTLTVSS VL: DIVMTQSHKFMSTSVGDRVSITCKASQDVGTAVAWYQQKPGQSPKLLIYWASTRHTGVPDRFTGSGSGTDFTLTISNVQSEDLADYFCQQYASYPLTFGGGTKLVIK | – | 16.1 | –
4-C22-A (antibody, V domains shown) VH: EVQLVESGGDLVKPGGSLKLSCAASGFTFSSFGMSWVRQTPDKRLEWVATISSGGGFTYYPDSVEGRFTISRDNAKNTLYLQMSSLKSEDTAMYYCARRLYDYDWFAYWGQGTLVTVSA VL: DIVMTQSHKIMSTSVGDRVSITCKASQDVVTAVAWYQKKPGQSPKLLIHWASTRHTGVPDRFTGSGSGTDFTLTISNVQSEDLADYFCQQYSSYPLTFGAGTKLELK | – | 1.44 | –
